Test results reported in publication PMC7672443, “Structural basis of the XPB helicase–Bax1 nuclease complex interacting with the repair bubble DNA” (Nucleic Acids Research, 2020).
Changes are numbered by the printed parent chain.

Experiments:
StXPB-Bax1^ΔC = target: T1, StXPB-Bax1^ΔC (Sulfurisphaera tokodaii, UniProt Q970I2); details: phosphate in the ATP-binding site of XPB, DNA-free heterodimer; NH4-citrate pH 7.5, PEG3350
T1 construct: gene xpb2

StXPB [1] = target: T2, StXPB (Sulfurisphaera tokodaii, UniProt Q970I2 2-439); assay: EMSA; stable complex at high protein:DNA ratio; EMSA: 25 mM Tris-Cl pH 7.5, 100 mM NaCl, 5% glycerol, 1 mM DTT, room temperature 40 min; 0.8 uM forked DNA or 0.3 uM bubble DNA; 4% TBE native gel, ethidium bromide; details: protein: recombinant; tags: N-terminal His8 (PreScission; removed); 3 nt mismatch bubble
T2 sequence: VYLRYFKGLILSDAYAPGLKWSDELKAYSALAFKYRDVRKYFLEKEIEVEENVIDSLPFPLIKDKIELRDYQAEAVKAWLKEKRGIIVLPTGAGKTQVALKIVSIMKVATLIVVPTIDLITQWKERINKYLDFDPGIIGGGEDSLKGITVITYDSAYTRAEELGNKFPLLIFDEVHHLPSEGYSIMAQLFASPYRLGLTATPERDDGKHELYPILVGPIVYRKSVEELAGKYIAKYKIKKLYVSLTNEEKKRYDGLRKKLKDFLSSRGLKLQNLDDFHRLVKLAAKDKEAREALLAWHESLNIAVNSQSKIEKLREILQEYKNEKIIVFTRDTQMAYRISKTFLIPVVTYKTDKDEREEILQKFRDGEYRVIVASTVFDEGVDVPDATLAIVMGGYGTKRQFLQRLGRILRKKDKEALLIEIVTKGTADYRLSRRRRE

StXPB [2] = target: T2, StXPB; assay: EMSA; stable complex; EMSA: 25 mM Tris-Cl pH 7.5, 100 mM NaCl, 5% glycerol, 1 mM DTT, room temperature 40 min; 0.8 uM forked DNA or 0.3 uM bubble DNA; 4% TBE native gel, ethidium bromide; details: protein: recombinant, tags: N-terminal His8 (PreScission; removed)
StXPB [3] = target: T2, StXPB; assay: EMSA; lower affinity than with Bax1; EMSA: 25 mM Tris-Cl pH 7.5, 100 mM NaCl, 5% glycerol, 1 mM DTT, room temperature 40 min; 0.8 uM forked DNA or 0.3 uM bubble DNA; 4% TBE native gel, ethidium bromide; details: protein: recombinant; tags: N-terminal His8 (PreScission; removed); fork: 22 bp duplex, 10 nt arms

T1 sequence (Q970I1 2-373 partner, one chain of several): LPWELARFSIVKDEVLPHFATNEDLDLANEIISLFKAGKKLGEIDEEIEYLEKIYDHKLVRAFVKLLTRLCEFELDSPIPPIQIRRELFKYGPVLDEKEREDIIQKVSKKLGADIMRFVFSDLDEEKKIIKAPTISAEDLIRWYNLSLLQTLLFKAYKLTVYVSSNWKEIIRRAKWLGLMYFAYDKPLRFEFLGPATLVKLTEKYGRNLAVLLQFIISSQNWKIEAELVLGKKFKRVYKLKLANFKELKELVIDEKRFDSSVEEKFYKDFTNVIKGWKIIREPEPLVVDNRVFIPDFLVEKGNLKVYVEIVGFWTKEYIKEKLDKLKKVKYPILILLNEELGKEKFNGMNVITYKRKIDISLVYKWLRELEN

O=P(O)(O)O [phosphate ion]
X-ray crystallography, 2.96 Å (StXPB-Bax1^ΔC): the ATP binding site of XPB contains a bound phosphate ion

B1: bubble-3 DNA (dsDNA)
DNA 1: TAGTCACAGCTGATTTTGCTCTGCTCCATAGT
DNA 2: ACTATGGAGCAGAGCTTTATCAGCTGTGACTA
binding result (StXPB [1]): binds

B2: bubble-5 DNA (dsDNA)
DNA 1: B1 DNA 1 with G18T
DNA 2: B1 DNA 2 with C15T, A19T
binding result (StXPB [2]; 32 nt strands, blunt, internal 5 nt T:T mismatch bubble): binds

B3: forked DNA (dsDNA)
DNA 1: B1 DNA 1 with T16G, T17C
DNA 2: TGATACTTCGAGAGCGCAATCAGCTGTGACTA
binding result (StXPB [3]): binds

B4: bubble-4 DNA (dsDNA)
DNA 1: B1 DNA 1 with G18T
DNA 2: B1 DNA 2 with C15T
binding result (StXPB [2]; 4 nt mismatch bubble): binds
